Reference: patent US20250042996A1 (ALLAKOS, published 2025)
Where two headings read alike, the source gives them in different places.

Columns and labels:
[1] = molecular target: human SIGLEC-9-ECD-Fc recombinant fusion protein (human) (UniProt Q9Y336); experiment: Siglec-9/Ligand Blocking Assay, negative control: fitted value printed for an almost flat curve; unit inferred, x axis 'Ab (nM)'
[2] = molecular target: human Siglec-9 (expressed on transfected Expi293 cells; also on primary human monocytes) (human) (UniProt Q9Y336)
Chain of human Siglec-9 (expressed on transfected Expi293 cells; also on primary human monocytes) (human) (Q9Y336 18-463 limits assumed): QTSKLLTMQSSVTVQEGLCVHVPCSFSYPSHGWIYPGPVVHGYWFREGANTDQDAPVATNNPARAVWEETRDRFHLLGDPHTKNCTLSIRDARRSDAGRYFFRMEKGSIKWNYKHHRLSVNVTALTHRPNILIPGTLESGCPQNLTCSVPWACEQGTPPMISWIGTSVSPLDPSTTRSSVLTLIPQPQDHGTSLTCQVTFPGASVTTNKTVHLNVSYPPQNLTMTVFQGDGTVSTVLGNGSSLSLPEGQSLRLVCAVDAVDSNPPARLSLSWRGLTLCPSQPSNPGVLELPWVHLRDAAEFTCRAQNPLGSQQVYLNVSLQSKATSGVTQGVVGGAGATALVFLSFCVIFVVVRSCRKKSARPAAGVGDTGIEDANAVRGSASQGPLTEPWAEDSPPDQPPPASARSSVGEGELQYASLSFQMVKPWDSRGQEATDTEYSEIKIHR

[3] = molecular target: human SIGLEC-9-ECD-Fc recombinant fusion protein (human) (UniProt Q9Y336); experiment: column 'Blocking EC50 (nM)': ligand blocking assay, antibody pre-mixed with Siglec-9-ECD-Fc, blocked binding to Siglec-9 ligands on T47D cells, flow cytometry
[4] = molecular target: human SIGLEC-9-ECD-Fc recombinant fusion protein (human) (UniProt Q9Y336); experiment: column 'Displacement EC50 (nM)': ligand displacement assay, Siglec-9-ECD-Fc pre-bound to ligands on T47D cells, antibody titrated, remaining Siglec-9-ECD-Fc by flow cytometry
[5] = molecular target: human SIGLEC-9-ECD-Fc recombinant fusion protein (human) (UniProt Q9Y336); experiment: Siglec-9/Ligand Blocking Assay: antibody titrated against Siglec-9-ECD-Fc, blocked binding to ligands on T47D cells, median MFI by flow cytometry; unit inferred, x axis 'Ab (nM)'
[6] = molecular target: human SIGLEC-9-ECD-Fc recombinant fusion protein (human) (UniProt Q9Y336); experiment: Ligand Displacement Assay: Siglec-9-ECD-Fc pre-bound to ligands on T47D cells, antibody titrated, remaining Siglec-9-ECD-Fc as median MFI by flow cytometry; unit inferred, x axis 'Ab (nM)'
[7] = molecular target: human SIGLEC-9-ECD-Fc recombinant fusion protein (human) (UniProt Q9Y336); experiment: Ligand Displacement Assay, negative control: fitted value printed for a curve that only dips at the last points; unit inferred, x axis 'Ab (nM)'
[8] = molecular target: human Siglec-9 (expressed on transfected Expi293 cells; also on primary human monocytes) (human, UniProt Q9Y336 18-463); experiment: cell-based or functional assay
Chain of human Siglec-9 (expressed on transfected Expi293 cells; also on primary human monocytes) (Q9Y336 18-463 limits assumed): as above

[9] = molecular target: T1, human SIGLEC-9-ECD-Fc recombinant fusion protein (human, UniProt Q9Y336 18-343); experiment: bio-layer interferometry (ForteBio), antibody captured on anti-mouse sensors, Siglec-9-ECD as analyte, 25 C, 1:1 global fit
T1 construct: The range starts at residue 1, so it includes the signal peptide; No cleavage site is stated; Secreted from CHOK1SV cells and purified on Protein A; also called Siglec-9-ECD-huFc; S9-ECD-Fc
T1 sequence (Q9Y336 18-343): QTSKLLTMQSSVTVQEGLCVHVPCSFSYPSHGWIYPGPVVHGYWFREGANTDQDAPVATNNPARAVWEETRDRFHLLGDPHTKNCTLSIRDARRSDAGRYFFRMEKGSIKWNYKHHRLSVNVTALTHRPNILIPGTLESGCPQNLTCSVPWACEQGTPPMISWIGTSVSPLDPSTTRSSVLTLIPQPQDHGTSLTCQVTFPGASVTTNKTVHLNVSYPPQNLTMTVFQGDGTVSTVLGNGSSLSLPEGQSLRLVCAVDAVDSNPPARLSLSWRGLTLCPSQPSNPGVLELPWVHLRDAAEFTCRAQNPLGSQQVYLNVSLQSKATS
Description: Antibody binding analysis was carried out by bio-layer interferometry (ForteBio). […] Antibodies were captured on anti-mouse kinetic sensors at 0.5 ug/mL; Siglec-9-ECD was used as analyte and diluted in assay buffer from 50 nM to 1.56 nM with 2x dilutions. Two-minute associations were conducted, followed by 10-minute dissociations. Results were determined relative to a control empty reference AHC sensor, and analyzed using ForteBio analysis software with 1:1 global fit parameters.

[10] = molecular target: T1, human SIGLEC-9-ECD-Fc recombinant …; experiment: column 'Blocking EC50 (nM)': ligand blocking assay, antibody pre-mixed with Siglec-9-ECD-Fc, blocked binding to Siglec-9 ligands on T47D cells, flow cytometry
Description: (§1) Recombinant Siglec-9-Fc was added to T47D cells in the presence of anti-Siglec-9 antibodies at increasing concentrations and binding of the complex was detected on the cell surface. […] The ability of an antibody to displace ligand binding was also determined (FIGS. 3 and 5).
(§2) Human breast cancer cell line T47D, which expresses high level of ligands for Siglec-9, was used to determine the blocking activity of anti-Siglec-9 antibodies in a cell-based assay. Two-fold serial dilutions of anti-Siglec-9 antibodies (40 nM to 40 pM) were combined with 10 nM Siglec-9-ECD-Fc in FACS buffer (PBS/2% BSA) and incubated on ice for 30 minutes. 2.5×10e4 T47D cells per well were added to round bottom 96-well tissue culture plates in FACS buffer, plates were centrifuged at 400g for 2 min, supernatant was removed and cells were re-suspended in 100 ul of the antibody-Siglec-9 complexes. After a 1 hour incubation on ice, cells were washed twice and incubated for 30 minutes with goat anti-human F(ab′)₂ fragment conjugated to AF647 (Jackson IR labs) at lug/ml in FACS buffer. After two more washes, cells were fixed in PBS/2% PFA and acquired on a Novocyte flow cytometer (ACEA biosciences). IC₅₀ values for blocking were determined based on plotting mean fluorescence in the APC channel and analysis using Prism Graphpad software.

[11] = molecular target: T1, human SIGLEC-9-ECD-Fc recombinant …; experiment: column 'Displacement EC50 (nM)': ligand displacement assay, Siglec-9-ECD-Fc pre-bound to ligands on T47D cells, antibody titrated, remaining Siglec-9-ECD-Fc by flow cytometry
Description: as §1
(§3) T47D cells were treated with 2ug/mL S9-ECD-Fc for 1 hour on ice. After the 1 hr preincubation of S9, a titration curve of anti Siglec-9 msIgG1s were added for 1 hr incubation at +37° C. Cells were then washed to remove unbound S9. Bound S9 were detected through the human Fc using Alexa488 conjugated secondary. Levels of remaining S9 were assessed by flow cytometry”

[12] = molecular target: T1, human SIGLEC-9-ECD-Fc recombinant …; experiment: Siglec-9/Ligand Blocking Assay: antibody titrated against Siglec-9-ECD-Fc, blocked binding to ligands on T47D cells, median MFI by flow cytometry; unit inferred, x axis 'Ab (nM)'
Description: as §1, §2

[13] = molecular target: T1, human SIGLEC-9-ECD-Fc recombinant …; experiment: Ligand Displacement Assay: Siglec-9-ECD-Fc pre-bound to ligands on T47D cells, antibody titrated, remaining Siglec-9-ECD-Fc as median MFI by flow cytometry; unit inferred, x axis 'Ab (nM)'
Description: as §1, §3

[14] = molecular target: T1, human SIGLEC-9-ECD-Fc recombinant …; experiment: BLI (ForteBio Octet Red), SIGLEC-9-ECD-Fc on anti-human Fc sensors, Fab in solution, monovalent
Description: (§4) Anti-human Fc sensors were coated with SIGLEC-9-ECD-Fc at a concentration of 20 μg/ml in 1XHBS+1% BSA buffer (GE Lifesciences). After a brief wash with 1XHBS+1% BSA buffer, m9A12, ch9A12 or the humanized Fabs were applied to the antigen-coated sensors. The monovalent binding association and dissociation rates were calculated by the ForteBio Octet Red analysis software.

[15] = molecular target: T1, human SIGLEC-9-ECD-Fc recombinant …; experiment: as above; remark: listed apart in the source
Description: The V-regions from the humanized Fab were re-formatted for expression as a human IgG4.
as §4

Chain of human SIGLEC-9-ECD-Fc recombinant fusion protein (human) (Q9Y336 18-343): as above

Q: How did the IC50 [1] turn out when Isotype (p3) (antibody) was run?
A: The IC50 was 71.3 nM.

Q: “anti-Siglec-9 monoclonal antibody MAB1139 (R&D Systems)” was tested. Which Internalization EC50: loss of surface Siglec-9 on CD14+ monocytes in PBMC after 24 h [2] did it give?
A: The Internalization EC50: loss of surface Siglec-9 on CD14+ monocytes in PBMC after 24 h was 0.165 nM.

Q: What about the EC50 [3] of the same molecule?
A: Its EC50 is 4.4 nM.

Q: And the EC50 [4]?
A: Its EC50 is 2 nM.

Q: What about the IC50 [5] of the same molecule?
A: The IC50 was 4.39 nM.

Q: And the IC50 [6]?
A: Its IC50 is 2 nM.

Q: For msIgG1 (p1) (antibody), which IC50 [7] is on record?
A: Its IC50 is 140 nM.

B1: mouse anti-Siglec-9 monoclonal antibody 9A12 (antibody, V domains shown)
VH: QVQLQQSGAELVRPGASVTLSCKASDYTFTDYEMHWVKQTPVHGLEWIGAIDPEAGGTDYNQKFKGKAILTADKSSSTAYMELRSLTSEDSAVYYCTRVWLHWGQGTTLTVSS
VL: NIVMTQSPSSLAVSAGEKVTMNCKSSQSVLYSSNQKNYLAWYQQKPGQSPKMLIYWASTRESGVPDRFTGSGSGTDFTLTISSVQSEDLAVYYCHQYLSSNTFGGGTKLEIK
notes: Mouse monoclonal antibody; also called m9A12
Q: How did the “Internalization EC50: loss of surface Siglec-9 on CD14+ monocytes in PBMC after 24 h” value [8] turn out when B1 was run?
A: Its value is 0.125 nM.

Q: What about the Kd [9] of the same molecule?
A: Its Kd is less than 0.001 nM.

Q: What about the EC50 [10] of the same molecule?
A: The EC50 was 2.62 nM.

Q: And the EC50 [11]?
A: Its EC50 is 1.52 nM.

Q: What about the IC50 [12] of the same molecule?
A: Its IC50 is 2.62 nM.

Q: And the IC50 [13]?
A: The IC50 was 1.52 nM.

B2: Tf83 Fab (Fab)
chain 1: QVQLVQSGAEVKKPGASVKVSCKASDYTFTDYEMHWVRQAPGQGLEWMGAINPEAGGTDYAQKFQGRVTMTADTSISTAYMELSRLRSDDTAVYYCTRVWLHWGQGTLVTVSS
chain 2: DIVMTQSPDSLAVSLGERVTMNCKSSQSVLYSSNQKNYLAWYQQKPGQPPKMLIYWASTRESGVPDRFSGSGSGTDFTLTISSLQAEDVAVYYCHQYLSSNTFGQGTKLEIK
Q: Which Kd [14] does the source give for B2 here?
A: The Kd was 9.99 nM.

Q: And the koff [14]?
A: Its koff is 0.00297 s⁻¹.

Q: And the kon [14]?
A: Its kon is 298000 M⁻¹ s⁻¹.

B3: Tf71 Fab (Fab)
chain 1: QVQLVQSGAEVKKPGASVKVSCKASGYTFTDYEMHWVRQAPGQGLEWMGAIDPEAGGTDYAQKFQGRVTMTADTSISTAYMELSRLRSDDTAVYYCTRVWLHWGQGTLVTVSS
chain 2: DIVMTQSPDSLAVSLGERVTMNCKSSQSVLYSSNQKNYLAWYQQKPGQPPKMLIYWASTRESGVPDRFSGSGSGTDFTLTISSLQAEDVAVYYCHQYLSSNTFGQGTKLEIK
Q: What does the source list for B3?
A: Kd [14]: 0.533 nM; koff [14]: 0.000232 s⁻¹; kon [14]: 435000 M⁻¹ s⁻¹

B4: Tf84 Fab (Fab)
chain 1: QVQLVQSGAEVKKPGASVKVSCKASDYTFTDYEMHWVRQAPGQGLEWMGAINPESGGTDYAQKFQGRVTMTADTSISTAYMELSRLRSDDTAVYYCTRVWLHWGQGTLVTVSS
chain 2: DIVMTQSPDSLAVSLGERVTMNCKSSQSVLYSSNQKNYLAWYQQKPGQPPKMLIYWASTRESGVPDRFSGSGSGTDFTLTISSLQAEDVAVYYCHQYLSSNTFGQGTKLEIK
Q: B4 was tested. Which Kd [14] did it give?
A: The Kd was 2.24 nM.

Q: What about the koff [14] of the same molecule?
A: Its koff is 0.00295 s⁻¹.

Q: What about the kon [14] of the same molecule?
A: The kon was 1.32e+06 M⁻¹ s⁻¹.

B5: Tf73 Fab (Fab, V domains shown)
VH: QVQLVQSGAEVKKPGASVKVSCKASDYTFTGYEMHWVRQAPGQGLEWMGAIDPEAGGTDYAQKFQGRVTMTADTSISTAYMELSRLRSDDTAVYYCTRVWLHWGQGTLVTVSS
VL: DIVMTQSPDSLAVSLGERVTMNCKSSQSVLYSSNQKNYLAWYQQKPGQPPKMLIYWASTRESGVPDRFSGSGSGTDFTLTISSLQAEDVAVYYCHQYLSSNTFGQGTKLEIK
notes: also called AK643-3 / AK628-1
Q: Which results are given for B5?
A: Kd [14]: 0.575 nM; koff [14]: 0.000184 s⁻¹; kon [14]: 319000 M⁻¹ s⁻¹; Kd [15]: 0.575 nM; koff [15]: 0.000184 s⁻¹; kon [15]: 319000 M⁻¹ s⁻¹

B6: Tf63 Fab (Fab, V domains shown)
VH: QVQLVQSGAEVKKPGASVKVSCKASDYTFTDYEMHWVRQAPGQGLEWMGAIDPEAGGTDYAQKFQGRVTMTADTSISTAYMELSRLRSDDTAVYYCTRVWLHWGQGTLVTVSS
VL: DIVMTQSPDSLAVSLGERVTMNCKSSQSVLYSSNQKNYLAWYQQKPGQPPKMLIYWASTRESGVPDRFSGSGSGTDFTLTISSLQAEDVAVYYCHQYLSSNTFGQGTKLEIK
notes: Humanized 9A12 Fab; also called AK639-12 / AK628-1
Q: With B6 as the molecule, how does the Kd [15] read?
A: Its Kd is 0.66 nM.

Q: What about the koff [15] of the same molecule?
A: Its koff is 0.00016 s⁻¹.

Q: And the kon [15]?
A: The kon was 242000 M⁻¹ s⁻¹.
